The text below walks through data of US9416353B2, “Covalent tethering of functional groups to proteins and substrates therefor” (Promega Corporation, priority 2004, dated 2016).

Data set [1] in a line: pH-indicator dye assay of hydrolysis of Cl-alkanes by DhaA (WT or mutant). The settings on record: 0.1 mg/ml of enzyme, 10 mM substrate, pH 7.0-8.2. In kind it is biochemical. The text has this: To study the effect of a point mutation on the activity of DhaA (WT or mutant) hydrolysis of Cl-alkanes, a pH-indicator dye system as described by Holloway et al. (1998) was employed.

Data set [2] in a line: Thermostability analysis of purified DhaA mutants (residual labeling activity, FP). In kind it is physicochemical. The note with it: for thermostability (residual activity): 60 minute incubations at various temperature. The method, then:
The thermostability profiles of the DhaA mutants were determined by measuring the residual activity of the purified proteins following 15, 30 or 60 minute incubations at 4, 22, 30, 37, 42, 50 or 60° C. The FP assay was performed at room temperature (about 25° C.). […] For each clone, the labeling rate (slope of the linear range) was calculated for each condition. The rate observed following a 15 minute incubation at 4° C. was arbitrarily assigned as 100% activity. The residual activity (%) was calculated for each condition. To determine stability, for each incubation time, the % of residual activity was plotted against the incubation temperatures. To calculate half-life, for each incubation temperature, the % of residual activity was plotted against the incubation time. The time where 50% activity was lost was extrapolated from the graph.

Data set [3] is classed as binding. The settings on record: biotin-PEG4-14-Cl substrate.
The nature of data set [4]: DhaA capture using immobilized biotin chloroalkane substrates (streptavidin plates, ELISA-type). In kind it is binding. The note with it: for reaction with immobilized biotin-PEG4-14-Cl: titration. The method, then:
Using an excess of substrate (about 2 μmol), the plates could bind approximately 75 μmol of biotin per well. […] Reactions between immobilized substrate and mutant DhaAs were performed using purified GST-DhaA-Flag fusions. Various concentrations of protein (100 μL; diluted in PBSTB) were incubated with immobilized substrate for various times at 25° C., and the reactions were stopped by emptying the plates and washing 4× with PBST. To detect bound DhaA, 100 μL anti-GST-HRP (Amersham) was added to each well at a 1:10,000 dilution (in PBSTB) and the plates incubated for 1 hour at 25° C.
(In general: An ELISA detects its analyte on a solid surface through an enzyme-linked reagent.)

A short description of data set [5]: Precipitation of DhaA.WT and mutants with (NH4)2SO4. In kind it is physicochemical. The note with it: 2 hours, 4° C. The method, then: Aliquots of the supernatant obtained from E. coli expressing DhaA (WT or one of the mutants) were treated with increasing concentrations of (NH4)2SO4. The proteins were exposed to each (NH4)2SO4 concentration for 2 hours (4° C.), pelleted by centrifugation, dialyzed overnight against buffer A, and resolved on SDS-PAGE.

Data set [6] can be described thus: In vivo labeling of DhaA mutants expressed in CHO-K1 cells (cell-to-gel analysis). In kind it is cell-based. The settings on record: 5 μM substrate. The method, then: (§1) Proteins (2-10 μl/lane) were resolved on SDS-PAGE (4-20% gradient gels).
The conditions of data set [7]: MagneGST assay.
Protocol: Bacterial colonies were picked into 96-well plates containing LB+Amp and incubated with shaking at 30° C. The cultures were diluted 1:20 into 96 well plates containing fresh TB medium, Amp and 0.1 mM IPTG. The plates were incubated at 30° C. with shaking overnight. The 96 well plates containing the IPTG induced cultures were centrifuged and supernatants removed. DhaA mutants were normalized for protein concentration by saturating protein capture on MagneGST™ PMPs. […] The plates were shaken at about 900 rpm for 10 minutes at room temperature. The particles were washed three times with PBST using a MagnaBot® 96 magnetic separation device. The wash solution was removed and MagneGST™ elution solution was added and the plates were allowed to shake at room temperature (about 900 rpm for 5 minutes). Supernatants were transferred to a new, flat bottom, transparent 96 well plate and the fluorescence intensity was measured using an excitation wavelength at 550 nm and an emission wavelength at 580 nm.
Four colonies at random of each identified hit were inoculated into 200 μL LB+Amp and grown overnight at 30° C. in flat bottom 96 well plates. Overnight cultures were diluted 1:50 into 200 μL TB ampicillin supplemented with 0.1 mM IPTG and grown overnight at 30° C. and 37° C. Induced cultures were re-assayed using the MagneGST™ based screen.
Data set [8] is described as follows: In vivo stability of DhaA mutants in transiently transfected CHO-K1 cells. In kind it is cell-based. The note with it: 12, 24 and 48 hours post-transfection. The method, then:
as §1

The nature of data set [9]: Hydrolysis of FAP by GST-BlaZ (WT or mutants). In kind it is biochemical. The settings on record: up to 60 minutes of co-incubation. The method, then:
The chromogenic substrate 6-β-[(Furylacryloyl)amido]penicillanic acid triethylamine salt (FAP) was purchased from Calbiochem (La Jolla, Calif.). […] All assays were performed at 25° C. in 0.1 M potassium phosphate buffer at pH 6.8.

B1: DhaA.WT: wild-type Rhodococcus rhodochrous dehalogenase (DhaA), generally GST at the N-terminus and FLAG at the C-terminus (protein, UniProt P0A3G2 1-293, looked up)
Haloalkane dehalogenase: MSEIGTGFPFDPHYVEVLGERMHYVDVGPRDGTPVLFLHGNPTSSYLWRNIIPHVAPSHRCIAPDLIGMGKSDKPDLDYFFDDHVRYLDAFIEALGLEEVVLVIHDWGSALGFHWAKRNPERVKGIACMEFIRPIPTWDEWPEFARETFQAFRTADVGRELIIDQNAFIEGALPKCVVRPLTEVEMDHYREPFLKPVDREPLWRFPNELPIAGEPANIVALVEAYMNWLHQSPVPKLLFWGTPGVLIPPAEAARLAESLPNCKTVDIGPGLHYLQEDNPDLIGSEIARWLPAL
modifications: N-terminal GST, C-terminal FLAG tag
For the molecule B1, the “activity with 1-Cl-butane” value in data set [1] was 5 units/mg of protein.

B2: DhaA.H272F YL: DhaA.H272F based mutant with Y273L (protein, UniProt P0A3G2 1-293, looked up, variant H272F Y273L)
Haloalkane dehalogenase: MSEIGTGFPFDPHYVEVLGERMHYVDVGPRDGTPVLFLHGNPTSSYLWRNIIPHVAPSHRCIAPDLIGMGKSDKPDLDYFFDDHVRYLDAFIEALGLEEVVLVIHDWGSALGFHWAKRNPERVKGIACMEFIRPIPTWDEWPEFARETFQAFRTADVGRELIIDQNAFIEGALPKCVVRPLTEVEMDHYREPFLKPVDREPLWRFPNELPIAGEPANIVALVEAYMNWLHQSPVPKLLFWGTPGVLIPPAEAARLAESLPNCKTVDIGPGLFLLQEDNPDLIGSEIARWLPAL
With B2, the “thermostability (residual activity)” value in data set [2] was “relatively unstable at temperatures above 30 °C”. The “signal relative to the parental clones” value in data set [3] is “significantly improved”. In addition, the “reaction with immobilized biotin-PEG4-14-Cl” value in data set [4] is listed as “react most efficiently”.

B3: DhaA.H272F YM: DhaA.H272F based mutant with Y273M (protein, UniProt P0A3G2 1-293, looked up, variant H272F Y273M)
Haloalkane dehalogenase: MSEIGTGFPFDPHYVEVLGERMHYVDVGPRDGTPVLFLHGNPTSSYLWRNIIPHVAPSHRCIAPDLIGMGKSDKPDLDYFFDDHVRYLDAFIEALGLEEVVLVIHDWGSALGFHWAKRNPERVKGIACMEFIRPIPTWDEWPEFARETFQAFRTADVGRELIIDQNAFIEGALPKCVVRPLTEVEMDHYREPFLKPVDREPLWRFPNELPIAGEPANIVALVEAYMNWLHQSPVPKLLFWGTPGVLIPPAEAARLAESLPNCKTVDIGPGLFMLQEDNPDLIGSEIARWLPAL
As for B3, the “thermostability (residual activity)” value in [2] is “relatively unstable at temperatures above 30 °C”. The “signal relative to the parental clones” value in data set [3] is listed as “significantly improved”. In [4], the “reaction with immobilized biotin-PEG4-14-Cl” value is reported as “react most efficiently”.

B4: DhaA.H272Q: DhaA mutant, His272 replaced with Gln (protein, UniProt P0A3G2 1-293, looked up, variant H272Q)
Haloalkane dehalogenase: MSEIGTGFPFDPHYVEVLGERMHYVDVGPRDGTPVLFLHGNPTSSYLWRNIIPHVAPSHRCIAPDLIGMGKSDKPDLDYFFDDHVRYLDAFIEALGLEEVVLVIHDWGSALGFHWAKRNPERVKGIACMEFIRPIPTWDEWPEFARETFQAFRTADVGRELIIDQNAFIEGALPKCVVRPLTEVEMDHYREPFLKPVDREPLWRFPNELPIAGEPANIVALVEAYMNWLHQSPVPKLLFWGTPGVLIPPAEAARLAESLPNCKTVDIGPGLQYLQEDNPDLIGSEIARWLPAL
B4: the “(NH4)2SO4 concentration that precipitates the protein” value in data set [5] is 10%.

B5: DhaA.H272G: DhaA mutant, His272 replaced with Gly (protein, UniProt P0A3G2 1-293, looked up, variant H272G)
Haloalkane dehalogenase: MSEIGTGFPFDPHYVEVLGERMHYVDVGPRDGTPVLFLHGNPTSSYLWRNIIPHVAPSHRCIAPDLIGMGKSDKPDLDYFFDDHVRYLDAFIEALGLEEVVLVIHDWGSALGFHWAKRNPERVKGIACMEFIRPIPTWDEWPEFARETFQAFRTADVGRELIIDQNAFIEGALPKCVVRPLTEVEMDHYREPFLKPVDREPLWRFPNELPIAGEPANIVALVEAYMNWLHQSPVPKLLFWGTPGVLIPPAEAARLAESLPNCKTVDIGPGLGYLQEDNPDLIGSEIARWLPAL
Consider B5, for which the “(NH4)2SO4 concentration that precipitates the protein” value in data set [5] is given as 10%.

B6: DhaA.H272F: DhaA mutant, catalytic His272 replaced with Phe (protein, UniProt P0A3G2 1-293, looked up, variant H272F)
Haloalkane dehalogenase: MSEIGTGFPFDPHYVEVLGERMHYVDVGPRDGTPVLFLHGNPTSSYLWRNIIPHVAPSHRCIAPDLIGMGKSDKPDLDYFFDDHVRYLDAFIEALGLEEVVLVIHDWGSALGFHWAKRNPERVKGIACMEFIRPIPTWDEWPEFARETFQAFRTADVGRELIIDQNAFIEGALPKCVVRPLTEVEMDHYREPFLKPVDREPLWRFPNELPIAGEPANIVALVEAYMNWLHQSPVPKLLFWGTPGVLIPPAEAARLAESLPNCKTVDIGPGLFYLQEDNPDLIGSEIARWLPAL
Take B6: the “thermostability (residual activity)” value in [2] is “stable up to temperatures of 40 °C”.

B7: DhaA.H272F H11: first generation DhaA.H272F mutant with K175M and C176G (protein, UniProt P0A3G2 1-293, looked up, variant K175M C176G H272F)
Haloalkane dehalogenase: MSEIGTGFPFDPHYVEVLGERMHYVDVGPRDGTPVLFLHGNPTSSYLWRNIIPHVAPSHRCIAPDLIGMGKSDKPDLDYFFDDHVRYLDAFIEALGLEEVVLVIHDWGSALGFHWAKRNPERVKGIACMEFIRPIPTWDEWPEFARETFQAFRTADVGRELIIDQNAFIEGALPMGVVRPLTEVEMDHYREPFLKPVDREPLWRFPNELPIAGEPANIVALVEAYMNWLHQSPVPKLLFWGTPGVLIPPAEAARLAESLPNCKTVDIGPGLFYLQEDNPDLIGSEIARWLPAL
As a reminder, the half-life is the time needed for the level to fall by half in the phase considered. Low values mean fast loss, high ones slow loss. In the case of B7, the “in vivo labeling performance compared to parent DhaA.H272F” value in [6] is listed as “superior performance characteristics”. For the same molecule, the “thermostability (residual activity)” value in data set [2] was “retained significant labeling activity following incubation as high as 50 °C”. Moreover, the half-life in data set [2] (at 50° C.) is 58 min. Further, in [7], the “signal relative to the respective parents” value is recorded as “considerably higher signal”. The “production of active protein (fluorescent signal after labeling)” value in data set [8] is listed as “more active protein after 48 hours”. The “reaction with immobilized biotin substrates” value in data set [4] (all biotin substrates tested) is “reacted poorly”.

B8: DhaA.H272F YC: DhaA.H272F based mutant with Y273C (protein, UniProt P0A3G2 1-293, looked up, variant H272F Y273C)
Haloalkane dehalogenase: MSEIGTGFPFDPHYVEVLGERMHYVDVGPRDGTPVLFLHGNPTSSYLWRNIIPHVAPSHRCIAPDLIGMGKSDKPDLDYFFDDHVRYLDAFIEALGLEEVVLVIHDWGSALGFHWAKRNPERVKGIACMEFIRPIPTWDEWPEFARETFQAFRTADVGRELIIDQNAFIEGALPKCVVRPLTEVEMDHYREPFLKPVDREPLWRFPNELPIAGEPANIVALVEAYMNWLHQSPVPKLLFWGTPGVLIPPAEAARLAESLPNCKTVDIGPGLFCLQEDNPDLIGSEIARWLPAL
Take B8: the “thermostability (residual activity)” value in data set [2] was “relatively unstable at temperatures above 30 °C”. For the same molecule, in [3], the “signal relative to the parental clones” value is on record as “significantly improved”.

B9: DhaA.H272A: DhaA mutant, His272 replaced with Ala (protein, UniProt P0A3G2 1-293, looked up, variant H272A)
Haloalkane dehalogenase: MSEIGTGFPFDPHYVEVLGERMHYVDVGPRDGTPVLFLHGNPTSSYLWRNIIPHVAPSHRCIAPDLIGMGKSDKPDLDYFFDDHVRYLDAFIEALGLEEVVLVIHDWGSALGFHWAKRNPERVKGIACMEFIRPIPTWDEWPEFARETFQAFRTADVGRELIIDQNAFIEGALPKCVVRPLTEVEMDHYREPFLKPVDREPLWRFPNELPIAGEPANIVALVEAYMNWLHQSPVPKLLFWGTPGVLIPPAEAARLAESLPNCKTVDIGPGLAYLQEDNPDLIGSEIARWLPAL
For the molecule B9, the “(NH4)2SO4 concentration that precipitates the protein” value in data set [5] was 10%.

B10: BlaZ.N170Q (protein, UniProt P00807 25-281, looked up, variant N170Q)
Beta-lactamase: KELNDLEKKYNAHIGVYALDTKSGKEVKFNSDKRFAYASTSKAINSAILLEQVPYNKLNKKVHINKDDIVAYSPILEKYVGKDITLKALIEASMTYSDNTANNKIIKEIGGIKKVKQRLKELGDKVTNPVRYEIELNYYSPKSKKDTSTPAAFGKTLNKLIANGKLSKEQKKFLLDLMLNNKSGDTLIKDGVPKDYKVADKSGQAITYASRNDVAFVYPKGQSEPIVLVIFTNKDNKSDKPNDKLISETAKSVMKEF
As for B10, the “hydrolysis of FAP” value in data set [9] was “could not be detected”.
